Here are results for one protein from paper PMC7089426, “C8J_1298, a bifunctional thiol oxidoreductase of Campylobacter jejuni, affects Dsb (disulfide bond) network functioning” (PLoS ONE, 2020).

The series deals with the molecule itself. Briefly: cross-linking; glutaraldehyde (0.0001-0.02% v/v), C8J_1298 at 1.8 mg/ml, room temperature, 20 min, 0.05 M bicine-NaOH pH 8.5, 0.1 mM DTT, 0.4 M NaCl; quenched with ethanolamine-HCl pH 8.0.

B1: C8J_1298, periplasmic dimeric thiol oxidoreductase of Campylobacter jejuni 81116 (recombinant, lacking the signal sequence, C-terminal His-Tag) (enzyme)
chain: ASNSEISDFYSKSIKAQFPNATVSVSNRQKVGNTGFESVIVSVELNGQKQENILFTKDSLITPDLIDLKTGISYAQEYEMKKFQEARENFTKNAKAVAQKETMVIALGDKNKPAIYVFSDPECPYCREHLAQIDDELKNYQVNYILTPVHGKSAFEKSALIYKEAKKAKNDKEKIAILNKYYDANIKNYPKVSDAELKEVFSLYEKYRSLGLSATPTIIK
Take B1: the “stoichiometry N” value stood at 2.

The term stoichiometry N denotes a count of units in the complex or per binding partner.
